Assay results taken from patent publication US20080241867.

Tested on: hybrid GFP construct containing the protease cleavage sequence SVPSGCG (SEQ ID NO:21) followed by histidine residues

| Substance | % GFP Released (60 minutes, 37° C.) | Micrograms of GFP Released by Protease (overnight, IMAC beads) | µg GFP Released by Protease (60 minutes, 37° C.) | also measured |
| --- | --- | --- | --- | --- |
| Chymotrypsin | 11% | 47 µg | 10.6 µg | – |
| Crude Bromelain | – | 86 µg | – | – |
| Pepsin | – | – | – | Micrograms of GFP Released by Protease (overnight, IMAC beads, pH 8.0): 0 µg |
| Elastase | – | 94 µg | – | release of GFP from beads, worded: The most effective enzyme was elastase, with positive results apparent within five minutes after adding the enzyme |
| Trypsin | 4.6% | – | 4.07 µg | Micrograms of GFP Released by Protease (overnight, IMAC beads); Trypsin (Sample 1): 9 µg; Micrograms of GFP Released by Protease (overnight, IMAC beads); Trypsin (Sample 2): 56 µg |
